In paper PMC6269467 one finds stoichiometry N data, which are given here for two substances.

In experiment [1] the target is αN-catenin actin-binding domain with the helix-1 mutation (αNcat-ABD-H1) (mouse) (UniProt Q61301). Briefly: crystal structure; αNcat-ABD-H1 crystals in forms A (2.2 Å) and B (2.8 Å), grown at 277 K by vapor diffusion; molecular replacement with PDB 4K1O.
Experiment [2] addresses αE-catenin actin-binding domain, wild type (αEcat-ABD-WT) (mouse) (UniProt P26231). Briefly: SEC-MALS; elution profiles at 3 mg/ml to 30 mg/ml; MALS of the dimer peak at 30 mg/ml; dimer to monomers; Superdex-200 Increase 10/300 GL; 20 mM Tris-HCl pH 7.0, 100 mM NaCl.

In general, stoichiometry N refers to a count of units in the complex or per binding partner. Take “αN-catenin actin-binding domain with the helix-1 mutation (αNcat-ABD-H1) (from UniProt Q61301-2 651-905) (domain or fragment)”: the stoichiometry N in experiment [1] was 2.

“αE-catenin actin-binding domain, wild type (αEcat-ABD-WT) (from UniProt P26231 652-906) (domain or fragment)” displayed a stoichiometry N in experiment [2] of 2.
